Among the data in patent US20210024652A1 are decrease in RNLS dependent ERK phosphorylation in MiaPaCa2 cells after PMCA4b siRNA, western blot values, retold here.

The assay has as its target plasma membrane calcium ATPase PMCA4b, P23634. Kind of assay: cell-based or functional assay.

plasma membrane calcium ATPase PMCA4b, P23634, sequence (P23634 whole entry): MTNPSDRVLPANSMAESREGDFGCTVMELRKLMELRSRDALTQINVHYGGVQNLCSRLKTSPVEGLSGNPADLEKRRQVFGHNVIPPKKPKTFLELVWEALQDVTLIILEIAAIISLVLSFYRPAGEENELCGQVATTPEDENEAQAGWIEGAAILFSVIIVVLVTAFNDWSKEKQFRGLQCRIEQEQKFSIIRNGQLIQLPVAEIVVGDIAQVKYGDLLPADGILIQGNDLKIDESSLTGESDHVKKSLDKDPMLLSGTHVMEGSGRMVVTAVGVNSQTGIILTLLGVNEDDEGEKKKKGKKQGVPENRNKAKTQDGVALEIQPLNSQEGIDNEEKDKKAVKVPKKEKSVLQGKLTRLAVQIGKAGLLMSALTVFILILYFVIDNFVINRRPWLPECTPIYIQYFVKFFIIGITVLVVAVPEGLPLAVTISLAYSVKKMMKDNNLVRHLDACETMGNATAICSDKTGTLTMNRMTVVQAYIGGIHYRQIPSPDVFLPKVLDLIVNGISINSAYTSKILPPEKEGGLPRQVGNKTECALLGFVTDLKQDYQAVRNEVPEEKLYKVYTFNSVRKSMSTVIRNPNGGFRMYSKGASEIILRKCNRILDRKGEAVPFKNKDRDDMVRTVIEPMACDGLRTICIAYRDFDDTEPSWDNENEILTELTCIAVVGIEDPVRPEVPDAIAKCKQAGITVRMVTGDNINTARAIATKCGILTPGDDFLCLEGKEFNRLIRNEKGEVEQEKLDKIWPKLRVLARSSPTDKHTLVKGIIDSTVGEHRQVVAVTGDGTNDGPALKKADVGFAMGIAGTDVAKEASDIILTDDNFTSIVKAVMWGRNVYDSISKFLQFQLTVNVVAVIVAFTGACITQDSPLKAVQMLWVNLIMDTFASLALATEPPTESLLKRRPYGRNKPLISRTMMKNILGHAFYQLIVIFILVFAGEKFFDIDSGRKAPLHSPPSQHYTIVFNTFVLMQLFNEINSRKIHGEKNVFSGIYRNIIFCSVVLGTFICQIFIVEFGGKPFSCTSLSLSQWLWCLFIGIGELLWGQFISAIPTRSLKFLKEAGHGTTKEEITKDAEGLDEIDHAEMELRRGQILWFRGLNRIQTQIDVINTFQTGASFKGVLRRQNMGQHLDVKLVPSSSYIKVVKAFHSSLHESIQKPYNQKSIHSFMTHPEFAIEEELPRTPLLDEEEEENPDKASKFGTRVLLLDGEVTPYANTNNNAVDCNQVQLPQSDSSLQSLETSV

For CIRFVSIDNKKRNIESSEIG [RNLS peptide RP-220], the decrease in RNLS dependent ERK phosphorylation in MiaPaCa2 cells after PMCA4b siRNA, western blot was 70%.
